According to patent US10654925B2, “Anti-marinobufagenin antibodies and uses thereof” (priority 2018, dated 2020):

Tests used:
[1] = ELISA avidity estimate on MBG-KLH; type: binding; details: wells coated with 2 μg/ml MBG-KLH; IgG
Method: (§1) The avidity of anti-MBG antibodies for MBG was estimated in an ELISA. Wells of a microtiter plate were coated with 2 μg/ml of either MBG-bovine serum albumin (BSA) or MBG-keyhole limpet hemocyanin (KLH). The wells were then blocked with 1% BSA. A test IgG antibody at varying concentrations (typically from about 0.0001 nM to about 25 nM) was added to the wells. The test IgG bound to immobilized MBG was detected with an anti-human Fc, horseradish peroxidase (HRP)-conjugated secondary antibody (Jackson ImmunoResearch). After washing of the wells, an appropriate HRP reagent (e.g., TMB ultra, Thermo Fisher) was added to the wells. Optical density (OD) at 450 nm was measured by a microplate reader. The concentration of test antibody at the midpoint of the binding curve is an estimate of avidity for MBG.

[2] = Competitive ELISA, free CTS competitors overall (summary and footnote); type: binding; details: competitors RBG, CINO, OUB, DIG; Table 2
Method: (§2) The specificity (relative affinity) of anti-MBG antibodies for MBG relative to various cardiotonic steroids (CTSs) was determined in a competitive ELISA. Each anti-MBG antibody was tested for its binding to immobilized MBG in the presence of free MBG, resibufogenin (RBG), cinobufagin (CINO), ouabain (OUB) or digoxin (DIG) as a competitor. A constant amount of an anti-MBG antibody (typically 1-5 μg/mL) and varying concentrations of each CTS (from 10^−12M to 10^−5M) were pre-incubated before being added to the MBG-BSA-coated wells. After washing of the wells, an anti-human Fc, HRP-conjugated secondary antibody (at 1:5000 dilution) was added to the wells and incubated at 37° C. for 1 hr. After washing of the wells, an appropriate HRP reagent (e.g., TMB ultra, Thermo Fisher) was added to the wells. OD at 450 nm was measured by a microplate reader. MBG at 10 μM was assumed to be 100% competed, and MBG at 1 pM was assumed to be 0% competed. The data was plotted as a titration of antibody-antigen binding relative to free CTS concentration in the competition reaction to determine the free CTS concentration (μM) giving 50% maximal binding of antibody to immobilized MBG. The relative specificity of an antibody for a CTS was normalized to MBG=100%.

[3] = ELISA avidity estimate on MBG-BSA; type: binding; details: wells coated with 2 μg/ml MBG-BSA; IgG
Method: as §1

[4] = Competitive ELISA, relative CTS specificity, OUB as competitor; type: binding; details: competition with immobilized MBG-BSA; normalized to MBG = 100%
Method: as §2

[5] = Competitive ELISA, relative CTS specificity, CINO as competitor; type: binding; details: competition with immobilized MBG-BSA; normalized to MBG = 100%
Method: as §2

[6] = Competitive ELISA, relative CTS specificity, DIG as competitor; type: binding; details: competition with immobilized MBG-BSA; normalized to MBG = 100%
Method: as §2

[7] = Competitive ELISA, relative CTS specificity, RBG as competitor; type: binding; details: competition with immobilized MBG-BSA; normalized to MBG = 100%
Method: as §2

[8] = Competitive ELISA, relative CTS specificity, free MBG as competitor; type: binding; details: competition with immobilized MBG-BSA; normalized to MBG = 100%
Method: as §2

[9] = test system: PKC-δ in the nucleus of primary rat cardiac fibroblasts; test: Inhibition of MBG-induced PKC-δ nuclear translocation (Western blot); details: MBG 2 nM; nuclei isolated 30 min later; FIG. 2a
Method: MBG was incubated with an anti-MBG antibody prior to addition to cultured primary rat cardiac fibroblasts. Nuclei were isolated 30 min later and analyzed for amount of PKC-6.

[10] = test system: human umbilical cord venous endothelial cells (HUVEC); test: Reversal of MBG inhibition of HUVEC cell proliferation (3H-thymidine); type: cell-based; details: MBG 2 nM, 48 hr
Method: MBG (2 nM) was incubated with an antibody (20 μg/mL in FIG. 3a with human anti-MBG mAbs, or varying concentrations (2.5-10 μg/mL) in FIG. 3b with humanized anti-MBG mAbs) prior to addition to cultured human umbilical cord venous endothelial cells (HUVEC). After 48 hr, DNA synthesis was assessed by incorporation of ^3H-thymidine.
HUVEC cells in endothelial cell growth medium were plated onto 96-well plates. The next day, the cells were pretreated with various antibodies (2.5-20 μg/mL) and then incubated with 2 nM MBG for 48 hr. [^3H]-Thymidine was added to each well. [^3H]-Thymidine-labeled DNA was assayed by harvesting the cells and assaying for ^3H using a PerkinElmer Wallac Tailux liquid scintillation counter. […] Means were tested for significance using Student's t-test.

Molecule | reaction with CTS competitor molecules [2] | Rel. CTS Specificity as % of MBG Binding: OUB [4] | Rel. CTS Specificity as % of MBG Binding: CINO [5] | Rel. CTS Specificity as % of MBG Binding: DIG [6] | Rel. CTS Specificity as % of MBG Binding: MBG [8] | amount of PKC-δ in the nucleus, MBG plus antibody [9] | also measured
203/204: human anti-MBG antibody, VH SEQ ID NO: 30, VL SEQ ID NO: 31 (antibody, listed as Homo sapiens, V domains shown) VH: QLQLQESGPGLVKPSETLSLTCTVSGGSISSYYWGWIRQPPGKGLEWIGSIYYSGSTYYNPSLKSRVTISVDTSKNQFSLQLKSVTPEDTAVYYCARVRPPAATFDYWGQGTLVTVSS VL: QSVVTQPPSVSAAPGQKVSISCSGGSSNIGNNYVSWYQQLPGTAPRLLIYENNNRPSGIPDRFSGSKSGTSATLGITGLQTGDEADYYCGTWDSSLRAVVFGGGTKLTVL | reacted with CTS competitor RBG | 0% | 0% | 0% | 100% | – | Estimated avidity (KA) (antibody concentration at 50% maximal binding to antigen, or EC50), Antigen 2 (MBG-KLH) [1]: 0.20 nM; Estimated avidity (KA) (antibody concentration at 50% maximal binding to antigen, or EC50), Antigen 1 (MBG-BSA) [3]: 0.32 nM; Rel. CTS Specificity as % of MBG Binding: RBG [7]: 10%
238/239: human anti-MBG antibody, VH SEQ ID NO: 41, VL SEQ ID NO: 42 (antibody, listed as Homo sapiens, V domains shown) VH: QLQLQESGPGLVKPSETLSLTCTVSGGSISSSSYYWGWIRQPPGKGLEWIGSIYYSGSTYYNPSLKSRVTISVDTSKNQFSLKLSSVTAADTAVYYCARVVVARTGTTISWFDPWGQGTLVTVSS VL: QAVLTQPSSLSASPGASASLTCTLRSGINVDTYRIYWYQQKPGSPPQYLLRYKSDSDKQQGSGVPSRFSGSKDASANAGILLISGLQSEDEADYYCVIWHSSAWVFGGGTKLTVL | reacted with the CTS competitor OUB | 10% | – | – | 100% | to a lesser extent | MBG inhibition of HUVEC cell proliferation, human mAbs ([10]; antibody 20 μg/mL, FIG. 3a): significantly reduced
1B-6C: human anti-MBG antibody, VH SEQ ID NO: 87, VL SEQ ID NO: 88 (antibody, listed as Homo sapiens) VH: QVQLQESGPGLVKPSETLSLTCTVSGGSISSSSYYWGWIRQPPGKGLEWIGSIYYSGSTYYNPSLKSRVTISLDTSKNQFSLKLSSLTAADTAVYYCARVPAIRSSAIFDYWGQGTLVTVSS light: QSVVTQPPSVSAAPGQKVTISCFGSRSNIGNNYVSWYQQFPGTAPQLLIFDNNKRPSGIPDRFSGSKSGTSASLGITGVQTGDEAEYYCGAWDSSLSAGAVFGGGTKLTVLGQPKAAPSVTLFPPSSEELQANKATLVCLISDFYPGAVTVAWKADSSPVKAGVETTTPSKQSNNKYAASSYLSLTPEQWKSHRSYSCQVTHEGSTVEKTVAPTECS | – | – | – | – | 100% | – | –
2A-5A: human anti-MBG antibody, VH SEQ ID NO: 100, VL SEQ ID NO: 101 (antibody, listed as Homo sapiens) VH: QVQLQESGPGLVKPSETLSLTCTVSGGSISSSSYYWGWIRQPPGKGLEWIGSIYYSGSTYYNPSLKSRVTISVDTSKNQFSLKLSSVTAADTAVYYCARFSRGGPFLWGRGTLVTVSS light: QSVVTQPPSVSAAPGQKVTISCSGSSSNIGSYSVSWYQQLPGTAPKLLIYDNNKRPSGIPDRFSGSKSGTSATLGITGLQTGDEADYYCGTWDSSLSAYVFGSGTKVTVLGQPKANPTVTLFPPSSEELQANKATLVCLISDFYPGAVTVAWKADGSPVKAGVETTKPSKQSNNKYAASSYLSLTPEQWKSHRSYSCQVTHEGSTVEKTVAPTECS | reacted with the CTS competitors RBG, CINO and DIG | 0% | 2.5% | 2.5% | 100% | – | Rel. CTS Specificity as % of MBG Binding: RBG [7]: 10%
H3L1: humanized anti-MBG antibody, VH H3 (SEQ ID NO: 11) with VL L1 (SEQ ID NO: 12) (antibody, V domains shown, Humanized VH sequence; Humanized VL sequence) VH: EVQLQESGPGLVKPSETLSLTCTVSGDSITSGYWNWIRQPPGKGLEYMGYISYSGTTYYNPSLKSRITISRDTSKNQYSLKLSSVTAADTAVYYCARARYGYGFDYWGQGTLVTVSS VL: DVVMTQSPLSLPVTLGQPASISCRSSQSIVHSNRNTYLEWFQQRPGQSPRRLIYKVSNRFSGVPDRFSGSGSGTDFTLKISRVEAEDVGVYYCFQGSHVPLTFGGGTKVEIK | – | – | – | – | – | reduced | –
H2L2: humanized anti-MBG antibody, VH H2 (SEQ ID NO: 10) with VL L2 (SEQ ID NO: 13) (antibody, V domains shown, Humanized VH sequence; Humanized VL sequence) VH: EVQLQESGPGLVKPSETLSLTCTVSGDSITSGYWNWIRQPPGKGLEYIGYISYSGTTYYNPSLKSRVTISRDTSKNQFSLKLSSVTAADTAVYYCARARYGYGFDYWGQGTLVTVSS VL: DVVMTQSPLSLPVTLGQPASISCRSSQSIVHSNRNTYLEWYQQRPGQSPRLLIYKVSNRFSGVPDRFSGSGSGTDFTLKISRVEAEDVGVYYCFQGSHVPLTFGGGTKVEIK | – | – | – | – | – | to a lesser extent | MBG inhibition of HUVEC cell proliferation, humanized mAbs ([10]; antibody 2.5-10 μg/mL, FIG. 3b): significantly reduced
H2L1: humanized anti-MBG antibody, VH H2 (SEQ ID NO: 10) with VL L1 (SEQ ID NO: 12) (antibody, V domains shown, Humanized VH sequence; Humanized VL sequence) VH: EVQLQESGPGLVKPSETLSLTCTVSGDSITSGYWNWIRQPPGKGLEYIGYISYSGTTYYNPSLKSRVTISRDTSKNQFSLKLSSVTAADTAVYYCARARYGYGFDYWGQGTLVTVSS VL: DVVMTQSPLSLPVTLGQPASISCRSSQSIVHSNRNTYLEWFQQRPGQSPRRLIYKVSNRFSGVPDRFSGSGSGTDFTLKISRVEAEDVGVYYCFQGSHVPLTFGGGTKVEIK | – | – | – | – | – | to a lesser extent | –
R4CE-10H: human anti-MBG antibody, VH SEQ ID NO: 80, VL SEQ ID NO: 81 (antibody, listed as Homo sapiens) VH: QLQLQESGPGLVKPSQTLSLTCTVSGGSISSGGYYWSWIRQPPGKGLEWIGSIYHSGSTYYNPSLKSRVTISVDTSKNQFSLKLSSVTAADTAVYYCARVMYYYGSGSPYWYFDLWGRGTLVTVSS light: QSVVTQPPSVSAAPGQKVTISCSGSSSNIGKNFVSWYQQFPGTAPKFLIYENSKRPSGIPDRISGSKSGTSATLAITGLQTGDEADYYCGTWDSSLSAVVFGGGTKLTVLSQPKAAPSVTLFPPSSEELQANKATLVCLISDFYPGAVTVAWKADSSPVKAGVETTTPSKQSNNKYAASSY | – | – | – | – | 100% | – | –
205/207: human anti-MBG antibody, VH SEQ ID NO: 53, VL SEQ ID NO: 54 (antibody, listed as Homo sapiens, V domains shown) VH: QLQLQESGPGLVKPSETLSLTCTVSGGSISSSSYYWGWIRQPPGKGLEWIGSIYYSGSTYYNPSLKSRVTISVDTSKNQFSLKLSSVTAADTAVYYCARFHTWAPRAFDIWGQGTMVTVSS VL: QSVVTQPPSVSAAPGQEVTISCSGSSSNIGNNYVSWYQQLPGTAPKLLIYDNNKRPSGIPDRFSGSKSGTSATLGITGLQTGDEADYYCGTWDSSLSALFGGGTKLTVL | – | 0% | 0% | 0% | 100% | – | –
